Here are results for 1 molecule from PMC8922272 (The EMBO Journal, 2022).

This experiment addresses GST-hAKT2 (human, UniProt P31751 1-481). Description: pull-down.

Sequence of GST-hAKT2 (P31751 whole entry): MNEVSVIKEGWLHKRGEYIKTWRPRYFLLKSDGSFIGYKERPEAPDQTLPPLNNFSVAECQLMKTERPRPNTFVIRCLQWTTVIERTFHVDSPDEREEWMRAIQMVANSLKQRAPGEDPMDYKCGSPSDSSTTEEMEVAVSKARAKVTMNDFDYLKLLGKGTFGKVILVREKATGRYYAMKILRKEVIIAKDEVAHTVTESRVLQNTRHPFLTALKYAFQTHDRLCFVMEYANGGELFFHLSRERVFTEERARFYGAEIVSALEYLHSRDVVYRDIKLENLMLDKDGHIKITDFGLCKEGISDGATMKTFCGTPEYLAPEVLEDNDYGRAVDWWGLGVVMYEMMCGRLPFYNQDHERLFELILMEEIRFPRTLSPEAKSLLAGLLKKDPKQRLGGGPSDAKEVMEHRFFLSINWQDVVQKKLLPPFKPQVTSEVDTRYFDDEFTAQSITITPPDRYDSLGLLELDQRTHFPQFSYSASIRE

B1: 6*His-hIRF3 (natural protein)
chain: MGTPKPRILPWLVSQLDLGQLEGVAWVNKSRTRFRIPWKHGLRQDAQQEDFGIFQAWAEATGAYVPGRDKPDLPTWKRNFRSALNRKEGLRLAEDRSKDPHDPHKIYEFVNSGVGDFSQPDTSPDTNGGGSTSDTQEDILDELLGNMVLAPLPDPGPPSLAVAPEPCPQPLRSPSLDNPTPFPNLGPSENPLKRLLVPGEEWEFEVTAFYRGRQVFQQTISCPEGLRLVGSEVGDRTLPGWPVTLPDPGMSLTDRGVMSYVRHVLSCLGGGLALWRAGQWLWAQRLGHCHTYWAVSEELLPNSGHGPDGEVPKDKEGGVFDLGPFIVDLITFTEGSGRSPRYALWFCVGESWPQDQPWTKRLVMVKVVPTCLRALVEMARVGGASSLENTVDLHISNSHPLSLTSDQYKAYLQDLVEGMDFQGPGES
With B1, the binding result is on record as “binds”.
